In PMC12012969 one finds stoichiometry N data, which are given here for 1 substance.

Experiment [1] addresses KslB, bacterial Pictet–Spenglerase from Kitasatospora setae (Kitasatospora setae). Briefly: crystal structure.
For experiment [2] the target is unchanged. In words: SEC.

“KslB, bacterial Pictet–Spenglerase from Kitasatospora setae (enzyme)”: the stoichiometry N in experiment [1] and in experiment [2] was 2 throughout.
